Positions of bridges follow the written chain, without caps; N, C: chain ends. No end group written: not given here. *: point of attachment. Biotin = O=C1N[C@H]2[C@H](CS[C@H]2CCCCC(=O)*)N1
B1: synthetic peptide IMGpep-1CS (peptide)
peptide: {Biotin-LC}-GSGYWRSEWGLSG
notes: Both Cys of IMGpep-1 replaced by Ser; linear control peptide; also called biotinylated IMGpep-1CS

What was measured:
[1] = biological target: T1, bovine serum albumin (bovine, UniProt P02769 25-607); experiment: ELISA on coated protein; biotinylated peptide premixed 4:1 with SA-AP; absorbance
T1 construct: Control protein; also called BSA
Procedure: (§1) The binding activity of the thus obtained biotinylated synthetic peptides to human IgG was assayed by an ELISA assay. […] Specifically, wells coated with human IgG (100 ng/50 μl/well) were blocked by the addition of 0.5% BSA. A biotinylated synthetic peptide and alkaline phosphatase-labeled streptavidin (SA-AP) were mixed in advance at a molar ratio of 4:1 and then the mixture was added to the well, followed by 1 hour of reaction. Para-nitrophenyl phosphate (Wako) was used for color development. Detection was carried out by measuring absorbance at 405 nm. As a positive control of human IgG, the Fc fragment of hIgG was used. As other control proteins, human IgA and IgE, mouse IgG, IgA, and IgE, hTF, fetal bovine serum (FBS), HSA, BSA, and gelatin were used.

[2] = biological target: T2, human serum albumin (human, UniProt P02768 25-609); experiment: as above
T2 construct: Control protein; also called HSA
Procedure: as §1

[3] = biological target: T3, human transferrin (human, UniProt P02787 20-698); experiment: as above
T3 construct: Control protein; also called hTF; ThF
Procedure: as §1

[4] = biological target: T4, polyclonal human IgG antibody (serum-derived) (human); experiment: SPR (BIAcore2000, 25 C), biotinylated peptide on SA chip, human IgG as analyte (41 to 660 nM)
T4 construct: also called hIgG
Procedure: SPR analysis was carried out using BIAcore2000 (BIAcore) at 25° C. Necessary reagents and sensor chips were purchased from BIAcore and then used. […] The amount of each peptide to be immobilized was adjusted so that the RU (response unit) ranged from 1500 to 2000. […] Binding reaction between human IgG and the peptides was measured. Thereafter, washing with running buffer (HBS-T) was conducted and then dissociation reaction was measured. For washing/elution of bound analytes from the sensor chips, 0.2 M glycine-HCl buffer (pH 2.7) was used. Binding parameters were analyzed using BIA evaluation Version 3.2 software.

[5] = biological target: T5, anti-HER2 human antibody (Herceptin), acid-treated; experiment: SPR, peptides on sensor chips, antibody 250 nM; acid treatment pH 2.1, 40 C, 10 min; reference Fc-III peptide
T5 construct: Same antibody as m38 after acid treatment and neutralisation; also called acid-treated anti-HER2 human IgG; acid-denatured anti-HER2 human IgG
Procedure: (§2) For this SPR analysis, human IgG samples were prepared via acid treatment under various conditions as described below and then tested. […] Subsequently, 30 μl (or 20 μl for a sample to which glycine-HCl with pH 2.7 had been added) of 1 M Tris-HCl (pH 8.7) was added to each solution for neutralization.

[6] = biological target: T5, anti-HER2 human antibody (Herceptin), …; experiment: SPR, peptides on sensor chips, antibody 250 nM; acid treatment pH 2.7, 30 C, 10 min; reference Fc-III peptide
Procedure: as §2

[7] = biological target: T5, anti-HER2 human antibody (Herceptin), …; experiment: SPR, peptides on sensor chips, antibody 250 nM; acid treatment pH 2.7, 20 C, 10 min; reference Fc-III peptide
Procedure: as §2

[8] = biological target: T5, anti-HER2 human antibody (Herceptin), …; experiment: SPR, peptides on sensor chips, antibody 250 nM; acid treatment pH 2.7, 40 C, 10 min; reference Fc-III peptide
Procedure: as §2

[9] = biological target: T5, anti-HER2 human antibody (Herceptin), …; experiment: SPR, peptides on sensor chips, antibody 250 nM; acid treatment pH 2.1, 20 C, 10 min; reference Fc-III peptide
Procedure: as §2

T1 sequence (P02769 25-607 limits assumed): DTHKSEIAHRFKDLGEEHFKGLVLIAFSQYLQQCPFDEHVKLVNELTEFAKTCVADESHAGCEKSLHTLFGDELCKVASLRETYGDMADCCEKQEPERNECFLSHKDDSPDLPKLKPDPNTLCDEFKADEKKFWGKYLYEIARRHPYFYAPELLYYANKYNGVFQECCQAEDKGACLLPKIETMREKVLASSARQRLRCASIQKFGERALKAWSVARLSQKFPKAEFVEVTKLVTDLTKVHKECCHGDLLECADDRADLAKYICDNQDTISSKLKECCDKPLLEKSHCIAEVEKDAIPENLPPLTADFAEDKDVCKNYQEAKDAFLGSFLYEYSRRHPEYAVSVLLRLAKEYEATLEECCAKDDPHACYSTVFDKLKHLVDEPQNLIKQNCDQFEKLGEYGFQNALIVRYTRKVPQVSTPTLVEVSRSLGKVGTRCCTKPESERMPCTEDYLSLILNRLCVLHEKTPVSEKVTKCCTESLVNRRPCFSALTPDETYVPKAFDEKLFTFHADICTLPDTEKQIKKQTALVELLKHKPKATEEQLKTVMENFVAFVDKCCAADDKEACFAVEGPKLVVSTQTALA
T3 sequence (P02787 20-698 limits assumed): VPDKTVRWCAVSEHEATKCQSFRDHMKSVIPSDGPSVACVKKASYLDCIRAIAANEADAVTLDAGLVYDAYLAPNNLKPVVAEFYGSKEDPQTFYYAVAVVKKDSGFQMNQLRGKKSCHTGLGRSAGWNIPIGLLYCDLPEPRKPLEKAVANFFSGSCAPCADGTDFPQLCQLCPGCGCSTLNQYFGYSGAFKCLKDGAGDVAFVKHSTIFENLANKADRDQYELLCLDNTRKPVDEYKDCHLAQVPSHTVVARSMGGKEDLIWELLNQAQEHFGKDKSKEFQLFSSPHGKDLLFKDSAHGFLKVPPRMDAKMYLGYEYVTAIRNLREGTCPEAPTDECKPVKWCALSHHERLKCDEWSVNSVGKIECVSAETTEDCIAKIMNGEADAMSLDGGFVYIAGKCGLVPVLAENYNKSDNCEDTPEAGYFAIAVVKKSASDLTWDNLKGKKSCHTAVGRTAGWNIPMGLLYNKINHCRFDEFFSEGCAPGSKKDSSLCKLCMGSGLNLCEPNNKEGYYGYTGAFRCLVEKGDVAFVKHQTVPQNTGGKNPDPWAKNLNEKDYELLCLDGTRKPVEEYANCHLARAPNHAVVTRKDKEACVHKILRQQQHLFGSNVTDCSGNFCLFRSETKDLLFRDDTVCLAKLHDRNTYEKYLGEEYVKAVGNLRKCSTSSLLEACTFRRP

| Binder | binding result [1] | binding result [2] | binding result [3] | Kd [4] | koff [4] | kon [4] | generation rate of acid-denatured IgG (ratio a/b of the SPR response on the IMGpep-4K6R chip to that on the Fc-III chip) [5] | generation rate of acid-denatured IgG (ratio a/b of the SPR response on the IMGpep-4K6R chip to that on the Fc-III chip) [6] | generation rate of acid-denatured IgG (ratio a/b of the SPR response on the IMGpep-4K6R chip to that on the Fc-III chip) [7] | generation rate of acid-denatured IgG (ratio a/b of the SPR response on the IMGpep-4K6R chip to that on the Fc-III chip) [8] | generation rate of acid-denatured IgG (ratio a/b of the SPR response on the IMGpep-4K6R chip to that on the Fc-III chip) [9] |
| --- | --- | --- | --- | --- | --- | --- | --- | --- | --- | --- | --- |
| {Biotin-LC}-GCTGYWPKAWGLCG (disulfide 2-13 (inferred), also called biotinylated IMGpep-4) [synthetic peptide IMGpep-4] | no binding | no binding | no binding | 28 nM | 0.00041 s⁻¹ | 14000 M⁻¹ s⁻¹ |  |  |  |  |  |
| GCTGYWPRAWGLCG (disulfide 2-13 (inferred); not fully specified (N-terminus), also called biotinylated IMGpep-4K6R) [synthetic peptide IMGpep-4K6R] | no binding | no binding | no binding | 24 nM |  |  | ~40% | 9.7% | ~5% | 40% | 7.8% |
| {Biotin-LC}-GCGYWRSEWGLCG (disulfide 2-12 (inferred), also called biotinylated IMGpep-1) [synthetic peptide IMGpep-1] | no binding |  | no binding | 17 nM | 0.00034 s⁻¹ | 20000 M⁻¹ s⁻¹ |  |  |  |  |  |
| {Biotin-LC}-GCGYWRSQWGLCG (disulfide 2-12 (inferred), also called biotinylated IMGpep-1E6Q) [synthetic peptide IMGpep-1E6Q] | no binding | no binding | no binding | 21 nM | 0.00031 s⁻¹ | 15000 M⁻¹ s⁻¹ |  |  |  |  |  |
| B1 | no binding | no binding | no binding |  |  |  |  |  |  |  |  |
